In patent publication US20250258178A1 (SHIONOGI, published 2025):

T1: Peptide #26 (human)
T1 construct: 15-mer of human HRG printed on a PEPperCHIP peptide microarray
T1 peptide: HPHCHDFQDYGPCDP

T2: Peptide #15 (human)
T2 construct: 15-mer of human HRG on the peptide microarray; the printed position spans only 14 residues
T2 peptide: HHPHGHHPHGHHPHC

T3: Peptide #12 (human)
T3 construct: 15-mer of human HRG on the peptide microarray; the printed position spans only 14 residues
T3 peptide: PHGHHPHGHHPHGHH

T4: Peptide #11 (human)
T4 construct: 15-mer of human HRG on the peptide microarray; the printed position spans only 14 residues
T4 peptide: HPHGHHPHGHHPHGH

T5: Peptide #8 (human)
T5 construct: 15-mer of human HRG printed on a PEPperCHIP peptide microarray
T5 peptide: PLPQGPPPLLPMSCS

T6: Peptide #6 (human)
T6 construct: 15-mer of human HRG printed on a PEPperCHIP peptide microarray
T6 peptide: GPPLPQGPPPLLPMS

T7: Peptide #3 (human)
T7 construct: 15-mer of human HRG printed on a PEPperCHIP peptide microarray
T7 peptide: HSHGPPLPQGPPPLL


Legend:
Assay in all cases: peptide microarray, fluorescent anti-mouse IgG
Peptide #26 = biological target: T1, Peptide #26
Protocol: (§1) An overlapping peptide scanning method was performed to find out specific antibody-binding peptide epitopes. The amino acid sequence of the HRG protein was obtained in NCBI protein database. PEPperPrint (registered trademark) (Heidelberg, Germany) was commissioned to prepare PEPperCHIP peptide microarrays designed from HRG protein sequences. Each peptide consisted of an overlapping peptide library having 15 amino acid residues overlapping 14 amino acid residues and was extended at the N- and C-terminus with a neutral GSGSGSG linker to ensure that the peptides were separated from each other. […] After treatment of 21 types of anti-HRG monoclonal antibodies, it stained with an anti-mouse IgG polyclonal secondary antibody followed by reading fluorescence intensity on a scanner to quantify protein-antibody binding.
(§2) Each microarray was processed as follows. Before incubation with a sample, a standard buffer was applied on slides followed by treating with a blocking buffer. The microarray was treated with a fluorescently-labeled anti-mouse IgG secondary antibody followed by the measurement of background fluorescence intensity caused by non-specific interactions using a scanner.
(§3) The microarray was incubated with the 21 types of anti-HRG monoclonal antibodies. The microarray was stained with a fluorescently labeled anti-mouse IgG secondary antibody. The fluorescence intensity at each position was measured by a scanner.

Peptide #15 = biological target: T2, Peptide #15
Protocol: as §1, §2, §3

Peptide #12 = biological target: T3, Peptide #12
Protocol: as §1, §2, §3

Peptide #11 = biological target: T4, Peptide #11
Protocol: as §1, §2, §3

Peptide #8 = biological target: T5, Peptide #8
Protocol: as §1, §2, §3

Peptide #6 = biological target: T6, Peptide #6
Protocol: as §1, §2, §3

Peptide #3 = biological target: T7, Peptide #3
Protocol: as §1, §2, §3

binding result (Peptide #26) | binding result (Peptide #15) | binding result (Peptide #12) | binding result (Peptide #11) | binding result (Peptide #8) | binding result (Peptide #6) | binding result (Peptide #3) | Binder
binds | binds | binds | binds |  |  |  | anti-HRG monoclonal antibody 75-2D (antibody, V domains shown, Mouse hybridoma monoclonal; also called clone No. 75-2D) VH: QVQLQQSGAELMKPGASVKISCKATGYTFSSYWIEWVKQRPGHGLEWIGEILPGSGRTNYNEKFKGKATFTADTSSNTAYMQLSSLTSEDSAVYYCARYSYFYYFDYWGQGTTLTVSS VL: DNVLTQSPAIMSASLGERVTMTCTASSSVSSSYLHWYQQKPGSSPKLWIYSTSNLASGVPARFSGSGSGTSYSLTISSMEAEDAATYYCHQYHRSPWTFGGGTKLEIK
 |  |  |  | binds | binds | binds | anti-HRG monoclonal antibody 69-1A (antibody, V domains shown, Mouse hybridoma monoclonal; also called clone No. 69-1A) VH: EVKLEESGGGLVQPGGSMKLSCAASGFTFSDAWMDWVRQSPEKGLEWVAEIRSKANNHGTYYAESVKGRFTISRDDSKSSVYLRMNSLSAEDTGIYYCTRPFAYWGQGTLVTVSA VL: DVVVTQTPLSLPVSLGDQASISCRSSQSLVHIDGNTYFHWYVQKPGQSPKLLIYKVSNRFSGVPDRFSGSGSGTDFTLKISRVEAEDLGVYFCSQSTHVPLTFGAGTKLELK
